Consider 1 molecule from patent US20250262210A1 (TRUSTEES OF COLUMBIA UNIVERSITY IN THE CITY OF NEW YORK, published 2025).

This test concerns the target T1, POLR3A (human, UniProt O14802 1-1390).
T1 sequence (looked up): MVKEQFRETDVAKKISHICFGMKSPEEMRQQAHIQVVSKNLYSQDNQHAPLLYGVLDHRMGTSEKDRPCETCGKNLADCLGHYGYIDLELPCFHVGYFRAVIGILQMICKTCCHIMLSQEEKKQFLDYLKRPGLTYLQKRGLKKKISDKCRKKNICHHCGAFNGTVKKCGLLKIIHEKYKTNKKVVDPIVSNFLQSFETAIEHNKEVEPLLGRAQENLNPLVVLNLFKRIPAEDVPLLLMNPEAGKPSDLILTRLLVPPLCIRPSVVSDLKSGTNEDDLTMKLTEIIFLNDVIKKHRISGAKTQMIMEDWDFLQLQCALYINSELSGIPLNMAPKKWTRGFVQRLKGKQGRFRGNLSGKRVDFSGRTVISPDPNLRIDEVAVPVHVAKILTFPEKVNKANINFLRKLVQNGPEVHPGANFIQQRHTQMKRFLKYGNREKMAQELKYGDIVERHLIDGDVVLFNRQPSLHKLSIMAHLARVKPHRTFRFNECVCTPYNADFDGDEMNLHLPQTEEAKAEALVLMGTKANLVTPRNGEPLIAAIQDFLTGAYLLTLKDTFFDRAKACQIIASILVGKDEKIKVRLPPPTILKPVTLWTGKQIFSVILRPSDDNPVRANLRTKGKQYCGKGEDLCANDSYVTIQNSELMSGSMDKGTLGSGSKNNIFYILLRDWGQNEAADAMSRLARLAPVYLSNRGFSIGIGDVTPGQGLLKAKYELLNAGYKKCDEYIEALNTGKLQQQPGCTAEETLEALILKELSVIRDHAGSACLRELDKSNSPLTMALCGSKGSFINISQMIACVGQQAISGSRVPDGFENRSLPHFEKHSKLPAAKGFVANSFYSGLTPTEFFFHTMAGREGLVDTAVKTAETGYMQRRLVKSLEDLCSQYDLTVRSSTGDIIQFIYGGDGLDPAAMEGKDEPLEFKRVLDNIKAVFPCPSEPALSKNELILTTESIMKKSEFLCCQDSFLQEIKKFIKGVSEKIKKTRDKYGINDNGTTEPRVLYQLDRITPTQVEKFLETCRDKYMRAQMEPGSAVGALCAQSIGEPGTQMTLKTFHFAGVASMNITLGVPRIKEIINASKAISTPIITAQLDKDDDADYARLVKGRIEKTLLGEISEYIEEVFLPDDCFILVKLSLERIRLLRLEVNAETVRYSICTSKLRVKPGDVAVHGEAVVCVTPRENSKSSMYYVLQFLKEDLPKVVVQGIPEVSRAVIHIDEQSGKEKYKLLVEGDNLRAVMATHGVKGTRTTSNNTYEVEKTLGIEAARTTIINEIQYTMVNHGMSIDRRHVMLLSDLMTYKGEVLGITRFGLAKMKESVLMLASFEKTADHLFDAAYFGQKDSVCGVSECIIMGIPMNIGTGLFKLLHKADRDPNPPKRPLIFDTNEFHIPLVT
Nature of the test: IP/MS, LZTR1 R810W-FLAG, U87. Summed up: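 Extracted peptides in 3% acetonitrile/0.1% formic acid ran on a 50 cm C18 column into an Orbitrap Fusion, with MaxQuant identification and spectral counting.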

B1: LZTR1 R810W-FLAG (other, human, UniProt Q8N653 1-840, looked up)
chain: MAGPGSTGGQIGAAALAGGARSKVAPSVDFDHSCSDSVEYLTLNFGPFETVHRWRRLPPCDEFVGARRSKHTVVAYKDAIYVFGGDNGKTMLNDLLRFDVKDCSWCRAFTTGTPPAPRYHHSAVVYGSSMFVFGGYTGDIYSNSNLKNKNDLFEYKFATGQWTEWKIEGRLPVARSAHGATVYSDKLWIFAGYDGNARLNDMWTIGLQDRELTCWEEVAQSGEIPPSCCNFPVAVCRDKMFVFSGQSGAKITNNLFQFEFKDKTWTRIPTEHLLRGSPPPPQRRYGHTMVAFDRHLYVFGGAADNTLPNELHCYDVDFQTWEVVQPSSDSEVGGAEVPERACASEEVPTLTYEERVGFKKSRDVFGLDFGTTSAKQPTQPASELPSGRLFHAAAVISDAMYIFGGTVDNNIRSGEMYRFQFSCYPKCTLHEDYGRLWESRQFCDVEFVLGEKEECVQGHVAIVTARSRWLRRKITQARERLAQKLEQEAAPVPREAPGVAAGGARPPLLHVAIREAEARPFEVLMQFLYTDKIKYPRKGHVEDVLLIMDVYKLALSFQLCRLEQLCRQYIEASVDLQNVLVVCESAARLQLSQLKEHCLNFVVKESHFNQVIMMKEFERLSSPLIVEIVRRKQQPPPRTPLDQPVDIGTSLIQDMKAYLEGAGAEFCDITLLLDGHPRPAHKAILAARSSYFEAMFRSFMPEDGQVNISIGEMVPSRQAFESMLRYIYYGEVNMPPEDSLYLFAAPYYYGFYNNRLQAYCKQNLEMNVTVQNVLQILEAADKTQALDMKRHCLHIIVHQFTKVSKLPTLWSLSQQLLLDIIDSLASHISDKQCAELGADI
notes: Stably expressed in U87 cells by lentivirus; also called LZTR1-FLAG-R810W; LZTR1 RW; not shown: FLAG tag
For the molecule B1, the binding result was “binds”.
